Assay results from patent US20180118802A1 (published 2018).

T1: RAP d3 (human, UniProt P30533 235-353)
T1 construct: also called wild-type RAP d3
T1 sequence: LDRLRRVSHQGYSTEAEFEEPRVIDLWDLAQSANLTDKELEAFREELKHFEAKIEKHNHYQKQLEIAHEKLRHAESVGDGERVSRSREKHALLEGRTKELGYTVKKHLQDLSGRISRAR

T2: RAP-GDNF (UniProt P30533 35-353; P39905 78-211, limits assumed)
T2 construct: also called RAP-GDNF fusion
T2 sequence (looked up): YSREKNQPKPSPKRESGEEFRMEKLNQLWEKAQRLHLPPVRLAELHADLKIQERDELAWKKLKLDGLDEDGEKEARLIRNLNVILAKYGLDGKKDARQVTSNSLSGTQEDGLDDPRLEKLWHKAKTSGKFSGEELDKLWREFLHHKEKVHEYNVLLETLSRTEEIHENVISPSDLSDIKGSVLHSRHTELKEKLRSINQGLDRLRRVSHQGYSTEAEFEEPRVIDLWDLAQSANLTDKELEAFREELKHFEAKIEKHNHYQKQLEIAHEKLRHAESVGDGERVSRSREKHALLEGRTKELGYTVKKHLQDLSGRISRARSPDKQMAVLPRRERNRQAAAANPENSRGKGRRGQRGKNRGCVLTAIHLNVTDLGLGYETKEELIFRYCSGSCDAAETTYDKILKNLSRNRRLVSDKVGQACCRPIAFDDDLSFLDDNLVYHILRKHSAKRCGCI

B1: LRP2 CR89 (receptor)
chain: not shown
notes: domain: CR89; also called YVWR; not shown: N-terminal hexahistidine and S-peptide of pET30(+)a

Tests used:
[1] = target: T1, RAP d3; assay: solid-phase binding assay, CR protein coated, anti-RAP detection
Text: (§1) Alternatively, the affinity differences between MegaRAP I d3 and MegaRAP1 d3 E270K may have been insufficient to alloW the latter to predominate upon iterative panning. A double revertant, T213S, E270K, had binding behavior that was not distinguishable from MegaRAP1 d3 in our assays. […] The binding behavior of the K251E, E270K double revertant implies a strong dependence of the affinity of MegaRAP1 d3 for LRP2 CR89 on the E251K mutation. […] Therefore, the K256A mutation in MegaRAP1 d3 is a crucial determinant of the ability of this variant to discriminate between the two receptor fragments, exerting its effect by negatively impacting affinity for LRP1 CR3-5 while at the same time improving affinity for LRP2 CR89.

[2] = target: B1; assay: as above
Text: as §1

[3] = target: B1; assay: as above; remark: listed apart in the source
Protocol: (§2) Wells were washed with TBSTC and bound ligands detected with polyclonal anti-RAP (BP41/42, 1:1,000, BioMarin). Excess primary antibody was removed and wells washed before incubation with the secondary antibody, HRP-conjugated goat anti rabbit IgG (Bio-Rad). After washing, TMB substrate solutions (Bio-Rad) were added to detect HRP. Color development was stopped with 1N HCl. Absorption at 450 nm was measured with a microplate spectrophotometer (Molecular Devices). Data were plotted and Kd values derived by non-linear regression with the assumption of single-site binding (GraphPad Prism).
(§3) Next, the binding of RAP d3 and MegaRAP1 d3 proteins to LRP1 CR3-5 and LRP2 CR89 was assessed. […] In all cases, 10 mM EGTA prevented binding of both RAP d3 and MegaRAP1 d3 to CR proteins. Since calcium was the only divalent metal ion present in the binding buffer, this observation is consistent with both RAP d3 and MegaRAP1 d3 binding to calcium-loaded CR pairs. […] Therefore, wild-type RAP d3 and MegaRAP1 d3 have inverted binding preferences for these two receptor fragments.

[4] = target: T3, LRP1 CR3-5 (human, UniProt Q07954 852-973); assay: as above
T3 construct: range 852-973; not shown: N-terminal hexahistidine and S-peptide of pET30(+)a
T3 sequence (Q07954 852-973, form in doubt): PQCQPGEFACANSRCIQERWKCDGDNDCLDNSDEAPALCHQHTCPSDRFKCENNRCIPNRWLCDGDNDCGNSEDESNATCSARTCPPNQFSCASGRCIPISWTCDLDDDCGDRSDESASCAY
Protocol: as §2, §3

[5] = target: T1, RAP d3; assay: as above; remark: listed apart in the source
Protocol: Solid phase binding assays—Purified, refolded CR protein (1 μg) was bound to Nunc Maxisorp™ 96-well plates in TBS pH 8 supplemented with 5 mM CaCl₂ (TBSC) overnight at 4° C. Wells were washed with TBSC and then blocked with TBSC containing 2% bovine serum albumin (BSA). RAP ligands were then incubated with the immobilized receptor at a range of concentrations for 2 hours in the above blocking buffer supplemented with 0.05% Tween-20 at room temperature. Control wells contained no added ligand. As an additional control, to determine whether the absence of calcium affected binding, 10 mM EGTA was included in the incubation medium for some samples. Wells were washed with TBSTC and bound ligands detected with polyclonal anti-RAP (BP41/42, 1:1,000, BioMarin). Excess primary antibody was removed and wells washed before incubation with the secondary antibody, HRP-conjugated goat anti rabbit IgG (Bio-Rad). After washing, TMB substrate solutions (Bio-Rad) were added to detect HRP. Color development was stopped with 1N HCl. Absorption at 450 nm was measured with a microplate spectrophotometer (Molecular Devices). Data were plotted and Kd values derived by non-linear regression with the assumption of single-site binding (GraphPad Prism).
One premise of this work was that amino acids at A, C, A′ and C′ within the calcium-binding loops of a CR pair were key determinants of binding affinity for RAP and would be similarly important for binding of RAP variants. To test this idea, mutant LRP2 CR89 were prepared in which the native, non-canonical residues at these positions were sequentially substituted with the non-native, canonical residues. As defined above, the A, C, A′, C′ string for LRP2 CR89 is YVWR. Mutants included LRP2 CR89 Y1042W (WVWR), LRP2 CR89 V1047D (YDWR), LRP2 CR89 R1088D (YVWD), LRP2 CR89 V1047D R1088D (YDWD), LRP2 CR89 Y1042W V1047D R1088D (WDWD), LRP2 CR89 Y1042W V1047D (WDWR), LRP2 CR89 Y1042W R1088D (WVWD). Binding to both RAP d3 and MegaRAP1 d3 were measured for each LRP2 CR89 mutant by solid-phase assay.

[6] = target: T2, RAP-GDNF; assay: solid-phase assay, RAP-GDNF coated, serial dilutions of GFRα-1 (FIG. 12)

Chain of LRP2 CR89 (P98164 1025-1102): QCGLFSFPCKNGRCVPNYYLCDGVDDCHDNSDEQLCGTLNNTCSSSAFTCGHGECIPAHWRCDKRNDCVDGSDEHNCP

Row | binding result [3] | Binder | other results
1 |  | B1 | Kd [1]: > 300 nM
2 |  | MegaRAP1 d3 A256K, E270K (ligand, not shown: small tags and cut ends, Double revertant of MegaRAP1 d3; also called MegaRAP1 A256K, E270K) LDRLRRVSHQGYTTEAKFEEPRVIDLWDLAQSANLTDKELEAFREELKYFKAKIEKHNHYQKQLEIAHEKLRHAESVGDGERVSRSREKHALLEGRTKELGYTVKKHLQDLSGRISRAR | fold loss of affinity [2]: 2 fold
3 | no binding | RAP d3 K270E (ligand, not shown: small tags and cut ends, Forward mutant of RAP d3; also called RAP K270E) LDRLRRVSHQGYSTEAEFEEPRVIDLWDLAQSANLTDKELEAFREELKHFEAKIEKHNHYQKQLEIAHEELRHAESVGDGERVSRSREKHALLEGRTKELGYTVKKHLQDLSGRISRAR | 
4 | no binding | RAP d3 E251K (ligand, not shown: small tags and cut ends, Forward mutant of RAP d3; also called RAP E251K) LDRLRRVSHQGYSTEAEFEEPRVIDLWDLAQSANLTDKELEAFREELKHFKAKIEKHNHYQKQLEIAHEKLRHAESVGDGERVSRSREKHALLEGRTKELGYTVKKHLQDLSGRISRAR | 
5 | no binding | RAP d3 H249Y (ligand, not shown: small tags and cut ends, Forward mutant of RAP d3; also called RAP H249Y) LDRLRRVSHQGYSTEAEFEEPRVIDLWDLAQSANLTDKELEAFREELKYFEAKIEKHNHYQKQLEIAHEKLRHAESVGDGERVSRSREKHALLEGRTKELGYTVKKHLQDLSGRISRAR | 
6 | no binding | RAP d3 E251K, K270E (ligand, not shown: small tags and cut ends, Forward mutant of RAP d3; also called RAP E251K, K270E) LDRLRRVSHQGYSTEAEFEEPRVIDLWDLAQSANLTDKELEAFREELKHFKAKIEKHNHYQKQLEIAHEELRHAESVGDGERVSRSREKHALLEGRTKELGYTVKKHLQDLSGRISRAR | 
7 | no binding | MegaRAP1 d3 K251E (ligand, not shown: small tags and cut ends, Revertant of MegaRAP1 d3; also called MegaRAP1 K251E) LDRLRRVSHQGYTTEAKFEEPRVIDLWDLAQSANLTDKELEAFREELKYFEAKIEAHNHYQKQLEIAHEELRHAESVGDGERVSRSREKHALLEGRTKELGYTVKKHLQDLSGRISRAR | 
8 | no binding | MegaRAP1 d3 A256K (ligand, not shown: small tags and cut ends, Revertant of MegaRAP1 d3; also called MegaRAP1 A256K) LDRLRRVSHQGYTTEAKFEEPRVIDLWDLAQSANLTDKELEAFREELKYFKAKIEKHNHYQKQLEIAHEELRHAESVGDGERVSRSREKHALLEGRTKELGYTVKKHLQDLSGRISRAR | 
9 |  | MegaRAP1 d3 E270K (ligand, not shown: small tags and cut ends, Revertant of MegaRAP1 d3; also called MegaRAP1 E270K) LDRLRRVSHQGYTTEAKFEEPRVIDLWDLAQSANLTDKELEAFREELKYFKAKIEAHNHYQKQLEIAHEKLRHAESVGDGERVSRSREKHALLEGRTKELGYTVKKHLQDLSGRISRAR | % max [4]: 85%
10 |  | LRP2 CR89 R1088D (receptor, not shown: small tags and cut ends, also called YVWD) not shown | binding result [5]: no binding
11 |  | LRP2 CR89 V1047D (receptor, not shown: small tags and cut ends, also called YDWR) PTEQCGLFSFPCKNGRCVPNYYLCDGDDDCHDNSDEQLCGTLNNTCSSSAFTCGHGECIPAHWRCDKRNDCVDGSDEHNCPTHA | binding result [5]: no binding
12 |  | LRP2 CR89 V1047D R1088D (receptor, not shown: small tags and cut ends, also called YDWD) PTEQCGLFSFPCKNGRCVPNYYLCDGDDDCHDNSDEQLCGTLNNTCSSSAFTCGHGECIPAHWRCDKDNDCVDGSDEHNCPTHA | binding result [5]: no binding
13 |  | LRP2 CR89 Y1042W (receptor, not shown: small tags and cut ends, also called WVWR) PTEQCGLFSFPCKNGRCVPNYWLCDGVDDCHDNSDEQLCGTLNNTCSSSAFTCGHGECIPAHWRCDKRNDCVDGSDEHNCPTHA | binding result [5]: no binding
14 | no binding | RAP d3 E217K (ligand, not shown: small tags and cut ends, Forward mutant of RAP d3; also called RAP E217K) LDRLRRVSHQGYSTEAKFEEPRVIDLWDLAQSANLTDKELEAFREELKHFEAKIEKHNHYQKQLEIAHEKLRHAESVGDGERVSRSREKHALLEGRTKELGYTVKKHLQDLSGRISRAR | 
15 | no binding | RAP d3 K256A, K270E (ligand, not shown: small tags and cut ends, Forward mutant of RAP d3; also called RAP K256A, K270E) LDRLRRVSHQGYSTEAEFEEPRVIDLWDLAQSANLTDKELEAFREELKHFEAKIEAHNHYQKQLEIAHEELRHAESVGDGERVSRSREKHALLEGRTKELGYTVKKHLQDLSGRISRAR | 
16 |  | GFRα-1 (receptor) DRLDCVKASDQCLKEQSCSTKYRTLRQCVAGKETNFSLASGLEAKDECRSAMEALKQKSLYNCRCKRGMKKEKNCLRIYWSMYQSLQGNDLLEDSPYEPVNSRLSDIFRVVPFISDVFQQVEHIPKGNNCLDAAKACNLDDICKKYRSAYITPCTTSVSNDVCNRRKCHKALRQFFDKVPAKHSYGMLFCSCRDIACTERRRQTIVPVCSYEEREKPNCLNLQDSCKTNYICRSRLADFFTNCQPESRSVSSCLKENYADCLLAYSGLIGTVMTPNYIDSSSLSVAPWCDCSNSGNDLEECLKFLNFFKDNTCLKNAIQAFGNGSDVTVWQPAFPVQTTTATTTTALRVKNKPLGPAGSENEIPTHVLPPCANLQAQKLKSNVSGNTHLCISNGNYEKEGLGASS | Kd [6]: ~5 ng/mL
